{"source": "patent US20060269536A1", "binders": {"B1": {"name": "rACT8.20 (designed binder)", "chain": "MRGSHHHHHHSRHPNSPLDEENLTQENQDRGTHVDLGLASANVDFAFSLYKQLVLKAPDKNVIFSPLSISTALAFLSLGAHNTTLTEILKGLKFNLTETSEAEIHQSFQHLLRTLNQSSDELQLSMGNAMFVKEQLSLLDRFTEDAKRLYGSEAFATDFQDSAAAKKLINDYVKNGTRGKITDLIKDLDSQTMMVLVNYIFFKAKWEMPFDPQDTHQSRFYLSKKKWVMVPMMSLHHLTIPYFRDEELSCTVVELKYTGNASALFILPDQDKMEEVEAMLLPETLKRWRDSLEFREIGELYLPKFSISRDYNLNDILLQLGIEEAFTSKADLSGITGARNLAVSQVVHKAVLDVFEEGTEASAATAVKITLRSRAVETRTIVRFNRPFLMIIVPTDTQNIFFMSKVTNPKQA"}}, "target": "hK3 (PSA) (human) (UniProt P07288)", "sequence (P07288 25-261 limits assumed)": "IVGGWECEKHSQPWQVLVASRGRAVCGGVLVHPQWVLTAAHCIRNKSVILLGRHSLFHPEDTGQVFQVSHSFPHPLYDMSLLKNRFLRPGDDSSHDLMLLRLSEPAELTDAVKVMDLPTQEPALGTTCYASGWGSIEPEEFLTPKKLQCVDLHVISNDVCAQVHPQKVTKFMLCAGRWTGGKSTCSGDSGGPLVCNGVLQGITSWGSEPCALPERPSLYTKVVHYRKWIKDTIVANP", "experiment": "cell-based or functional assay", "data": [{"binder": "B1", "values": [{"measurement": "Inhibition % (residual enzyme activity, CFP-TFRSA-YFP substrate, 90 min at 37°)", "value": 45, "unit": "%"}]}]}
